Source: paper PMC2528196

B1: Srs2 (Saccharomyces cerevisiae S288C) (protein)
chain: MSSNNDLWLHLVSQLNTQQRAAALFDYTRGLQVIAGPGTGKTKVLTSRVAYLILHHHIHPRDIIVTTFTNKAANEMKERLQEMLRGAGVNISELLIGTFHSICLKILYRFGHLVDLQKDWRIIDEKEIDVILDDMIEKVPDQIRDYASSITRKVNLCMPSKNGDEWTIHPKLIKKQISKLKSNAILPEEYILDSNHDAALGYFYQIYQSELSKKNTLDFDDLLMYTFRLLTRVRVLSNIKHVLVDEFQDTNGIQLDLMFLFAKGNHHLSRGMTIVGDPDQSIYAFRNALAHNFLEMGRKCPIEYSTIILVENYRSSQKILNTSEILITQQNKGRQNRAPLRAQFDLDFPPVYMNFPAYFLEAPSLVRELLYLKALPNLFTFNDFAILVRQRRQIKRIESALIEHRIPYKIIRGHSFWDSKETRAMLNLLKLIFSPNDKHAILASLLYPARGLGPATGEKIKNALDTLATDVSCFQILKDISSKKIMLDIPTKGRSVIADFISMIENCQLLLQSTLLGGLSDLFDKLYELSGLKYEYLYKDGKKKNDQLEKSEPNLLNARHKNIELLKNYFLALLSKSESSDKEKNEAIKAATDEAEPIENKVITPKEYLRNFFNSLSLHSDAAEEEESESNKDAKIKREKNGFVTISTIHGAKGLEWPVVFIPGCEEGIIPCVFNDDKKDESEEDEEEDQENSKKDASPKKTRVLSVEDSIDEERRMFFVAQTRAKYLLYLSNTVTVEDVDRPRIASRFLTTDLIKAMSDSQKLFESTNSIKKLYRILNKKPPAEDDKLFSLDQLRKDYNQFIENRRERMIWQGIQMNDVYGIQLSRNKLLGSVSDFTSAADQLRLETQNSIFPQKKLIEKSRPSKINGNYAPKSRVKSPEKRYAPETTSFHSPTKKKVYAPQYVSTTNVPSRQEFHSSTGKNIPFLRREDRSITDISPRSSTRSLKGASPNKTSHMSDDLMRPSPTRKDKVTRNIHFATAGTFRIETQSNVDELHPPEYSNKSGQSLTSSEFSGFSSACSNSDQPTNLIEDINNELDLSDEELLNDISIERRRELLGSKKTKKIKPKTRNRKSKRGDKVKVEEVIDLKSEFEEDDSRNTTAAELLHNPDDTTVDNRPIISNAKFLADAAMKKTQKFSKKVKNEPASSQMDIFSQLSRAKKKSKLNNGEIIVID
B2: forked DNA P1/P2 (dsDNA)
DNA 1: AGAAGGTTTCGAATCAGAGGTAGGTGCCCGGCCTCCAACTTGCCGTATTCCTGGT
DNA 2: ACCAGGAATACGGCAAGTTGGAGGCCGGGCTGGATGGAGACTAAGCTTTGGAAGT

Columns and labels:
purified protein = substrate: Nc1ncnc2c1ncn2[C@@H]1O[C@H](COP(=O)(O)OP(=O)(O)OP(=O)(O)O)[C@@H](O)[C@H]1O; experiment: purified protein; conditions: saturating 56-mer ssDNA, 37°C, pH 7.6, 7 mM MgCl2, 100 mM NaCl
Srs2 = Srs2 (Saccharomyces cerevisiae, UniProt P12954 1-1174); experiment: EMSA

Binder | Km (purified protein) | kcat (purified protein) | binding result (Srs2)
B1 | 143 µM | 55.3 s⁻¹ | 
B2 |  |  | binds
